As a reminder, the Kd is the constant that tells how readily two partners part at equilibrium. In general, koff refers to the rate constant with which the complex falls apart. A high value points to a short-lived complex. One may read the kon as the second-order rate constant of association.

Experiment [1] has as its target T1, Full-length human HER3 extracellular domain (ECD) (human, UniProt P21860 20-643).
T1 construct: also called human HER3 ECD; HER-3 ECD full length
Briefly: BIACORE 3000 SPR, mAb captured by anti-human Fc, ECD as analyte, 25 C. The protocol:
The binding kinetics of these antibodies for was assessed using a BIACORE™ 3000. Antibodies were captured on a CM5 biosensor chip to which an immobilized anti-human IgG (Fc specific) BIACORE™ (GE Healthcare cat# BR-1008-39) monoclonal antibody had been conjugated using supplied coupling buffer (9000 RU). Full-length human HER3 ECD concentrations were injected for 120s at a flow rate of 30 ul/min. Biosensor chips were regenerated as described in Example 1. Kinetics were determined by global fitting of data to the 1:1 Langmuir model using BIACORE™ Evaluation software. Analytical runs were carried out at 25° C. using FIBS-EP as the running buffer.
Buffer cycle and double referencing were performed as described in Example 1; and 5) Regenerate biosensor chips with BIACORE™ optimized buffers.
Background: SPR reads the build-up and loss of mass on a sensor chip optically.

The target in experiment [2] is T2, Human HER3 ECD domain III (human, UniProt P21860 330-495).
T2 construct: also called D3; Domain 3
Briefly: affinity summary table, method not given.

For experiment [3], the target named is T1, Full-length human HER3 extracellular …. Briefly: affinity summary table, method not given.
Experiment [4] concerns the target T2, Human HER3 ECD domain III. The experiment is described as follows: BIACORE 2000 SPR, mAb captured, HER3 protein as analyte, 25 C. The protocol:
(§1) Mouse monoclonal antibodies were analysed using rabbit anti-mouse (RAM) IgG (GE Healthcare BR-1008-38) covalently coupled to a BIACORE™ CM5 chip (GE HEalthcare BR-1000-14) by primary amine chemistry (NHS/EDC activated) (GE Healthcare amine coupling kit BR-1000-50). Chimeric and humanized competitor monoclonal antibodies were analyzed using anti-human, Fc specific monoclonal (GE Healthcare BR-1008-39) similarly coupled. Each chip was also prepared with a reference surface to which no capture reagent antibody is coupled. Sensorgrams for cycles run with differing analyte concentrations are acquired for kinetic analysis. A cycle consists of capturing the monoclonal on the surface, a short stabilization period with flowing run buffer followed by binding of a defined concentration of analyte (ECD or sub-domain protein). Injection of analyte for surface binding (3-4 minutes) yields the association part of curve. This is followed by buffer only flow (3-4 minutes) which allows recording of dissociation data.
(§2) The general method for affinity analysis is as follows. First, chips were prepared and tested for reasonance units (RU) captured for several monoclonal antibody concentrations. Kinetic cycles were then run in which monoclonal antibody was captured to a level of approximately 100RU, analyte protein was allowed to bind then dissociate and the surface was regenerated to remove all but covalently coupled protein. RAM chips were regenerated with capture kit supplied 100 mM glycine pH1.7 and anti-human chips with capture kit supplied 3M MgCl₂. […] Several buffer cycles were run prior to analyte protein to ensure cycle consistency and in some experiments a buffer cycle is used a “double reference[.]” Analytes used were human full length HER3 extra cellular domain (ECD), separate sub-domains of the extracellular portion of human HER3 (D1, D2, D3, D4), or combination HER3 domain proteins (D1-2 and D2-3).

The target of experiment [5] is T1, Full-length human HER3 extracellular …. The description is as above. How it is done: as §1, §2

Numbering of substitutions follows the chain as printed.

T2 sequence (P21860 330-495): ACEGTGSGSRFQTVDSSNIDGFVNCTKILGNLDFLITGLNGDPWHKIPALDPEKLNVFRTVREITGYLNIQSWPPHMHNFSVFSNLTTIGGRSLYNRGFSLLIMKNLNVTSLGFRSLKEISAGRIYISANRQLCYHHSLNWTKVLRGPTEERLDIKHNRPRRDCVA
T1 sequence (P21860 20-643): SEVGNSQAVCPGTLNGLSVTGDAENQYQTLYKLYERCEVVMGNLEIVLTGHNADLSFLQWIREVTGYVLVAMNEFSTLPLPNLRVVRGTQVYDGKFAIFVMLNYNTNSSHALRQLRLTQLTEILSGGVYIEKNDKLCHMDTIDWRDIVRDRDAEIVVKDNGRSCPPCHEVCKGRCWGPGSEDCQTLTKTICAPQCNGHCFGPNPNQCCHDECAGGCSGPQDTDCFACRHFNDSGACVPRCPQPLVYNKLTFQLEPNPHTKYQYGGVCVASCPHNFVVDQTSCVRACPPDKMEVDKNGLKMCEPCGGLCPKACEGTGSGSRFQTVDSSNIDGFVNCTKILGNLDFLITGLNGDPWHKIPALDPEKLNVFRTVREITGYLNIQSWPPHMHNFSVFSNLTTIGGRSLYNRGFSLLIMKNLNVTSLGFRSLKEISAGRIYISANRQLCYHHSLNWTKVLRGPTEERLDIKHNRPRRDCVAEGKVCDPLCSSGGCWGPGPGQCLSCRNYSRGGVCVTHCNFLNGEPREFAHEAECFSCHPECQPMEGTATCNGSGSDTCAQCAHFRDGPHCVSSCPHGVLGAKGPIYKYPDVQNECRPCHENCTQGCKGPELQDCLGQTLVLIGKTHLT

B1: 15D5 H3L1 antibody (antibody, V domains shown)
VH: QVQLVQSGAEVKKPGASVKVSCKASGYTFTDYNMNWVRQAPGQGLEWMGGINPNYGTTVYNQKFKGKATLTVDQSISTAYMELSRLRSDDTAVYYCARMTTIVPFDYWGQGTTVTVSS
VL: DIQMTQSPSSLSASVGDRVTITCRASQDISNYLNWYQQKPGKAPKLLIYYTSTLHSGVPSRFSGSGSGTDYTFTISSLQPEDIATYYCQQGYTLPWTFGGGTKVEIKR
notes: Humanized 15D5 variant
In experiment [1], B1 showed a Kd of 4.21 nM, a koff of 0.000171 s⁻¹ and an association rate constant (kon) of 40500 M⁻¹ s⁻¹.

B2: 15D5 H3L3 antibody (antibody, V domains shown)
VH: B1 VH
VL: B1 VL with Y71F, F73L, I83F, G100Q, V104L
notes: also called 15D5 H31.3 antibody
Take B2: in experiment [1], the Kd was 8.72 nM, the koff amounted to 0.000367 s⁻¹ and the kon is 42100 M⁻¹ s⁻¹.

B3: 15D5 H1L1 antibody (antibody, V domains shown)
VH: B1 VH with V2F, T28S, R38K, M48I
VL: B1 VL
In experiment [1], B3 came in with a Kd of 7.19 nM, a koff of 0.000267 s⁻¹ and a kon of 37100 M⁻¹ s⁻¹.

B4: 15D5 H2L1 antibody (antibody, V domains shown)
VH: B1 VH with R38K, M48I
VL: B1 VL
notes: Humanized 15D5 variant
Take B4: in experiment [1], the Kd worked out at 8.7 nM, the koff turned out to be 0.000365 s⁻¹ and the kon is 41900 M⁻¹ s⁻¹.

B5: 15D5 H2L2 antibody (antibody, V domains shown)
VH: B1 VH with R38K, M48I
VL: B1 VL with F73L, I83F, G100Q, V104L
notes: Humanized 15D5 variant
In experiment [1], B5 had a Kd of 12.8 nM, a koff of 0.00407 s⁻¹ and a kon of 317000 M⁻¹ s⁻¹.

B6: 15D5 H4L3 (antibody, V domains shown)
VH: B1 VH with A68V, Q74T
VL: B1 VL with Y71F, F73L, I83F, G100Q, V104L
notes: To be rechecked
In experiment [1], B6 had a Kd of 24.7 nM, a koff of 0.000935 s⁻¹ and a kon of 37900 M⁻¹ s⁻¹.

B7: 15D5 H1L3 antibody (antibody, V domains shown)
VH: B1 VH with V2F, T28S, R38K, M48I
VL: B1 VL with Y71F, F73L, I83F, G100Q, V104L
notes: Humanized 15D5 variant; also called 15D5 HIL3 antibody
For the molecule B7, in experiment [1], the Kd was determined as 10 nM, the koff came out at 0.000345 s⁻¹ and the kon was 34400 M⁻¹ s⁻¹.

B8: 1D9 H6L0 RR antibody (antibody, V domains shown)
VH: QVQLVQSGAEVKKPGASVKVSCKASGYTFTSYWMHWVRQAPGQGLEWMGVIDPSDGYSHYNQKFKGKVTLTVDTSISTAYMELSRLRSDDTAVYYCAGGLAGTLDYWGQGTTVTVSS
VL: DIQMTQSPSSLSASVGDRVTITCRSSQSIVHSSGNTYLQWYQQKPGKAPKLLIYKVSNRFSGVPSRFSGSGSGTDFTLTISSLQPEDFAVYYCFQGSHVPWTFGQGTKLEIKR
notes: Humanized RR variant
In experiment [1], B8 registered a Kd of 7.51 nM, a koff of 0.00366 s⁻¹ and a kon of 487000 M⁻¹ s⁻¹.

B9: 1D9 H0L7 RR antibody (antibody, V domains shown)
VH: B8 VH with K67R, L70M, V72R, G98R
VL: DVVMTQSPLSLPVTLGQPASISCRSSQSIVHSSGNTYLQWFQQRPGQSPRRLISKVSNRFSGVPDRFSGSGSGTDFTLKISRVEAEDVGVYYCFQGSHVPWTFGQGTKLEIKR
notes: Humanized RR variant; captured by anti-human Fc
In experiment [1], B9 displayed a Kd of 59.5 nM, a koff of 0.00195 s⁻¹ and a kon of 32700 M⁻¹ s⁻¹.

B10: 1D9 H2L2 RR antibody (antibody, V domains shown)
VH: B8 VH with K67R, L70M, V72R
VL: B8 VL with Y41F
notes: Humanized RR variant
In experiment [1], B10 returned a Kd of 13.4 nM, a koff of 0.00444 s⁻¹ and a kon of 331000 M⁻¹ s⁻¹.

B11: 1D9 H0L9 RR antibody (antibody, V domains shown)
VH: B8 VH with K67R, L70M, V72R, G98R
VL: B9 VL with R50K, R51L
notes: Humanized RR variant; also called 1D9 HOL9 RR antibody
For B11, in experiment [1], binding was characterised by a dissociation constant (Kd) of 38.1 nM, the koff turned out to be 0.0144 s⁻¹ and the kon came out at 377000 M⁻¹ s⁻¹.

B12: 1D9 H3L2 RR antibody (antibody, V domains shown)
VH: B8 VH with L70M, V72R, G98R
VL: B8 VL with Y41F
notes: Humanized RR variant
In experiment [1], B12 returned a Kd of 59.4 nM, a koff of 0.00316 s⁻¹ and an association rate constant (kon) of 53300 M⁻¹ s⁻¹.

B13: 1D9 H6L6 RR antibody (antibody, V domains shown)
VH: B8 VH
VL: B9 VL with S54Y
notes: To be rechecked
Regarding B13, in experiment [1], the Kd worked out at 7.02 nM, the koff came to 0.00487 s⁻¹ and the kon is 694000 M⁻¹ s⁻¹.

B14: Humanized 1D9 RR antibody (H6L2) (antibody, human IgG1, V domains shown)
VH: B8 VH
VL: DIQMTQSPSSLSASVGDRVTITCRSSQSIVHSSGNTYLQWFQQKPGKAPKLLIYKVSNRFSGVPSRFSGSGSGTDFTLTISSLQPEDFAVYYCFQGSHVPWTFGQGTKLEIKRR
notes: Human IgG1; also called 1D9 H6L2 RR antibody; h1D9 RR wt
In experiment [2], B14 gave a Kd of 0.018 nM. This molecule also returned a Kd in experiment [3] of 4.1 nM. In experiment [1], this molecule registered a Kd of 3.96 nM, a dissociation rate constant (koff) of 0.0017 s⁻¹ and a kon of 430000 M⁻¹ s⁻¹.

B15: 1D9 H6L3 RR antibody (antibody, V domains shown)
VH: B8 VH
VL: B8 VL with I2V
notes: Humanized RR variant
For the molecule B15, in experiment [1], binding was put at a Kd of 3.91 nM, the koff came out at 0.00302 s⁻¹ and the kon came out at 773000 M⁻¹ s⁻¹.

B16: 1D9 H6L4 RR antibody (antibody, V domains shown)
VH: B8 VH
VL: B8 VL with Q3L
As to B16, in experiment [1], the Kd is 7.89 nM, the koff was 0.0041 s⁻¹ and the kon came to 519000 M⁻¹ s⁻¹.

B17: 1D9 H6L9 RR antibody (antibody, V domains shown)
VH: B8 VH
VL: B9 VL with R50K, R51L
notes: Humanized RR variant
As to B17, in experiment [1], the Kd worked out at 3.35 nM, the koff worked out at 0.00223 s⁻¹ and the kon came to 665000 M⁻¹ s⁻¹.

B18: 1D9 H3L6 RR antibody (antibody, V domains shown)
VH: B8 VH with L70M, V72R, G98R
VL: B9 VL with S54Y
In experiment [1], B18 displayed a Kd of 95.8 nM, a koff of 0.00292 s⁻¹ and a kon of 30400 M⁻¹ s⁻¹.

B19: 1D9 H6L5 RR antibody (antibody, V domains shown)
VH: B8 VH
VL: B8 VL with I2V, Q3L, Y41F, Y54S
notes: also called 1D9 116L5 RR antibody
For B19, in experiment [1], binding was put at a Kd of 6.87 nM, the koff came out at 0.00371 s⁻¹ and the kon worked out at 540000 M⁻¹ s⁻¹.

B20: Chimeric 1D9 antibody (antibody, V domains shown)
VH: QVQLQQPGAELVRPGTSVKLSCKASGYTFTSYWMHWVKQRPGQGLEWIGVIDPSDGYSHYNQKFKGKATLTVDTSSSTAYMQLSSLTSEDSAVYYCAGGLAGTLDYWGQGTTLTVSS
VL: DVLMTQTPLSLPVSLGDQASISCRSSQSIVHSSGNTYLQWFLQKPGQSPKLLISKVSNRFSGVPDRFSGSGSGTDFTLRISRVEAEDLGLYYCFQGSHVPWTFGGGTKLEIK
notes: Murine VH fused to human IgG1 CH1-Fc, murine VL fused to human CK; also called Ch1D9; ch1D9
On to B20, for which the Kd in experiment [2] is 0.198 nM; in experiment [3], around 1 nM; in experiment [4], 0.2 nM; in experiment [5], 1.1 nM. For the same molecule, the values for the kon in experiment [4] and in experiment [5] were 4.58e+06 M⁻¹ s⁻¹ and 740000 M⁻¹ s⁻¹, respectively.
